Data: patent US20190134153A1, “IMMUNOMODULATORY EFFECT OF INHALED KINASE INHIBITOR PEPTIDES IN LUNG” (MOERAE MATRIX, INC., priority 2017, published 2019)

Legend:
Assay in all cases: Kinase Profiling Assay
Type in all cases: biochemical
Settings in all cases: 100 μM
Fms(h) = Fms(h) (Homo sapiens, UniProt P07333)
PDGFRα(V561D)(h) = PDGFRα(V561D)(h) (Homo sapiens, UniProt P16234, V561D)
NEK11(h) = target: T1, NEK11(h) (Homo sapiens, UniProt Q8NG66)
T1 sequence (Q8NG66 1-645): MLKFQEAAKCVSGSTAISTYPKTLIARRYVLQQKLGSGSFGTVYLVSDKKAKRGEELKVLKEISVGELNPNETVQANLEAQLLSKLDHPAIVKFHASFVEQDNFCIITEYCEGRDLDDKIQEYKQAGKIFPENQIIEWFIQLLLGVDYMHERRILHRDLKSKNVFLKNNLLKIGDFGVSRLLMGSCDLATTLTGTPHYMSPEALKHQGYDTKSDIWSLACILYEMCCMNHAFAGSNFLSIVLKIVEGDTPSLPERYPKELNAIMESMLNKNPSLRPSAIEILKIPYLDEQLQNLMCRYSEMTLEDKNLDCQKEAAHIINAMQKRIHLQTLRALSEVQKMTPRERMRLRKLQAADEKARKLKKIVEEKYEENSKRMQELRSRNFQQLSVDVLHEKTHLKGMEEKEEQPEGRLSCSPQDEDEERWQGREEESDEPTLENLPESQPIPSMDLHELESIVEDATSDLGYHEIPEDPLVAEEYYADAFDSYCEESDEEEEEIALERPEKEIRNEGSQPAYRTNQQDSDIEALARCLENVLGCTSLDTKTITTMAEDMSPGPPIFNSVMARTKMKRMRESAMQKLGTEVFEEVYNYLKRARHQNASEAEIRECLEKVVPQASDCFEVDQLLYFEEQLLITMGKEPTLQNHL

DAPK1(h) = DAPK1(h) (Homo sapiens, UniProt P53355)
DAPK1(h), sequence (P53355 whole entry): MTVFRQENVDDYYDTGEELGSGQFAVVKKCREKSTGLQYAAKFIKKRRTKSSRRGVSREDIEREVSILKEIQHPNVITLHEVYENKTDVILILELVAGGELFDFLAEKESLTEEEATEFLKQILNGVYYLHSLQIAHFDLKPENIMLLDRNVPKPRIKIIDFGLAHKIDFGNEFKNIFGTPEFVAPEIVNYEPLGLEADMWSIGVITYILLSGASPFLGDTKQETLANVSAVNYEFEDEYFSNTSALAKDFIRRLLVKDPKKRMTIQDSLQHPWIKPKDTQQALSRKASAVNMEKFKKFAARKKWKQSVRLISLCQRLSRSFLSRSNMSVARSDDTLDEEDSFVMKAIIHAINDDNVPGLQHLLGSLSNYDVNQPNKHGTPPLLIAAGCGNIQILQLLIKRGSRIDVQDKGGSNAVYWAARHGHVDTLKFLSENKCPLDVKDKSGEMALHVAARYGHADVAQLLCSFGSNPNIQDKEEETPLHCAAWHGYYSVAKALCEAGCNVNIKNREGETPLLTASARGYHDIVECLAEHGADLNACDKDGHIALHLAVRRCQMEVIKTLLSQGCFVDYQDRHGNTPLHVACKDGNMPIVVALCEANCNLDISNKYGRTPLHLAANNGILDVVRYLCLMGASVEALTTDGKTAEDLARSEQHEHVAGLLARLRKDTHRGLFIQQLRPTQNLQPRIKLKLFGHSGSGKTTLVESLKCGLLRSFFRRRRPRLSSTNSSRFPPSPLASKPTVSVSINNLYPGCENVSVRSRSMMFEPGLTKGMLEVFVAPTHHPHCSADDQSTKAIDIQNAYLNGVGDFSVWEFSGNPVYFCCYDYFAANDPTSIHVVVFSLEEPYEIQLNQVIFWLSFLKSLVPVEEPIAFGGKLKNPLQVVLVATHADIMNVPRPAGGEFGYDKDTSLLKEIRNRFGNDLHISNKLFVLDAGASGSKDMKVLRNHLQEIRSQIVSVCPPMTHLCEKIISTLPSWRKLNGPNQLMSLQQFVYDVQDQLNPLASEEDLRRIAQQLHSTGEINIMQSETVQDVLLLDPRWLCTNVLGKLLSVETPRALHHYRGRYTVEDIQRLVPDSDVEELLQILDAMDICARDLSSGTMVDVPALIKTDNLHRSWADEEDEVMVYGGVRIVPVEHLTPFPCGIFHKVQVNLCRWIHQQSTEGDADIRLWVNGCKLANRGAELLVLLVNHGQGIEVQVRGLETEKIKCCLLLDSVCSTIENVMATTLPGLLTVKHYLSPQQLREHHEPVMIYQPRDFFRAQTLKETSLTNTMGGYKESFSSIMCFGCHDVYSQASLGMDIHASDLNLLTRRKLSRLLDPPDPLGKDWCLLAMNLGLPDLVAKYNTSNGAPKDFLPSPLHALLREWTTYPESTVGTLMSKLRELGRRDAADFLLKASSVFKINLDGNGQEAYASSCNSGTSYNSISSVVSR

Tec(h) activated = target: T2, Tec(h) activated (Homo sapiens, UniProt P42680)
T2 sequence (P42680 1-631): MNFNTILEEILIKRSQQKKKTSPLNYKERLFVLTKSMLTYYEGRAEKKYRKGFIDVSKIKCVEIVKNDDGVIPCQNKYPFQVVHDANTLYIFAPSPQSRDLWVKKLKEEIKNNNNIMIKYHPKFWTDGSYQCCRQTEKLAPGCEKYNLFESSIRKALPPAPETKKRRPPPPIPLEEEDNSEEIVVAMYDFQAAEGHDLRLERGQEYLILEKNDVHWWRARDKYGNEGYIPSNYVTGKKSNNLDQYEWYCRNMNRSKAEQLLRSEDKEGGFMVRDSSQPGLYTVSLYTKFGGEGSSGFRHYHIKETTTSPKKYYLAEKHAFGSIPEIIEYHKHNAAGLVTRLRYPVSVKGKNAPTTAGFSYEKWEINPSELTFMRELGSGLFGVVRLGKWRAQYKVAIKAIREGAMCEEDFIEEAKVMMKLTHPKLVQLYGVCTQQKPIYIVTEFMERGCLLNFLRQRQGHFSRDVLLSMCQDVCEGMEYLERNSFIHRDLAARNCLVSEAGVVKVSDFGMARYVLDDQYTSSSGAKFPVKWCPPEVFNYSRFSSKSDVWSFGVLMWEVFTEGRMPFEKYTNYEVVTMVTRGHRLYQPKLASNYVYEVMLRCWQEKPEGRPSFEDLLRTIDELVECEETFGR

ROCK-I(h) = ROCK-I(h) (Homo sapiens, UniProt Q13464)
ROCK-I(h), sequence (Q13464 whole entry): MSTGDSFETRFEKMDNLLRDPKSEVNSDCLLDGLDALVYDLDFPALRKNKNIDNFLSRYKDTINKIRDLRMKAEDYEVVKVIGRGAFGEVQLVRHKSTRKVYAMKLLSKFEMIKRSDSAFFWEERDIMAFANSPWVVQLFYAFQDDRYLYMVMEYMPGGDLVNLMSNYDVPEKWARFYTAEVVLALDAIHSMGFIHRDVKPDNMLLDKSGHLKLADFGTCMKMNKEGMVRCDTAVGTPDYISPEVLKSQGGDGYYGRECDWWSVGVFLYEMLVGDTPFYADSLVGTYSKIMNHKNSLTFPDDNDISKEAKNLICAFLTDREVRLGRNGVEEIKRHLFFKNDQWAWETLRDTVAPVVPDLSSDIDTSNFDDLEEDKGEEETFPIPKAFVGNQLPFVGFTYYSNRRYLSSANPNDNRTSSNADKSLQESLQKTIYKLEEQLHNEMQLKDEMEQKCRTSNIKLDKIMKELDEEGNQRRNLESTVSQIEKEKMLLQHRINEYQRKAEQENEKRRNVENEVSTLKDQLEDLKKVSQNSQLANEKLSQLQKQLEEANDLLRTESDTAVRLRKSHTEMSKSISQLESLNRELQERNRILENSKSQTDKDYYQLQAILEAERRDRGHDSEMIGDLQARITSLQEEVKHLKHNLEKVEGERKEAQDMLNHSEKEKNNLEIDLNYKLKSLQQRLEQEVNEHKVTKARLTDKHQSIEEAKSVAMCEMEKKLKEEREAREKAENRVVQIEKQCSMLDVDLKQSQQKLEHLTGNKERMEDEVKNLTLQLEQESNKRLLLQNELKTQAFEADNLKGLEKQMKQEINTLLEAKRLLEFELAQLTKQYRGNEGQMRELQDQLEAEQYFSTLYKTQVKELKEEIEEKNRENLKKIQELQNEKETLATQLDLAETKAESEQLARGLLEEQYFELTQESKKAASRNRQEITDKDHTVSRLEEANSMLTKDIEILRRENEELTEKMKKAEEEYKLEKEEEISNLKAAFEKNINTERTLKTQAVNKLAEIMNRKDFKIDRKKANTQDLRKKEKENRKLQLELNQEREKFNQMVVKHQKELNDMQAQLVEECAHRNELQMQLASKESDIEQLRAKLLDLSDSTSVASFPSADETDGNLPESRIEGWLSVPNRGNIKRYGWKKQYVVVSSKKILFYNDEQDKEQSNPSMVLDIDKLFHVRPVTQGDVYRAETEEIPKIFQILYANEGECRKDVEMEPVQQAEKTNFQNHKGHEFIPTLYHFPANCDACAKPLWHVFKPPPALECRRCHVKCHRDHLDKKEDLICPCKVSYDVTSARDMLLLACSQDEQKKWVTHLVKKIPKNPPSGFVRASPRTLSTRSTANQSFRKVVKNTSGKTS

NEK6(h) = NEK6(h) (Homo sapiens, UniProt Q9HC98)
NEK6(h), sequence (Q9HC98 whole entry): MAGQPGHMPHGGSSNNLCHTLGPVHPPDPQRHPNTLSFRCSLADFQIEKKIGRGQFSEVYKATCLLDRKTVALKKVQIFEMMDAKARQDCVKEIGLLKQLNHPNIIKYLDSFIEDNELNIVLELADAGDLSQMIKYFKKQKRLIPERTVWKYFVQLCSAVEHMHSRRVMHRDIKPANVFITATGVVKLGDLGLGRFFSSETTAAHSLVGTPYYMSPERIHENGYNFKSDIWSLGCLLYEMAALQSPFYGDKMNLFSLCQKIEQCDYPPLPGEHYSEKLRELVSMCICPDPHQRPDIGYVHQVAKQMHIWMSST

Bmx(h) = target: T3, Bmx(h) (Homo sapiens, UniProt P51813)
T3 sequence (P51813 1-675): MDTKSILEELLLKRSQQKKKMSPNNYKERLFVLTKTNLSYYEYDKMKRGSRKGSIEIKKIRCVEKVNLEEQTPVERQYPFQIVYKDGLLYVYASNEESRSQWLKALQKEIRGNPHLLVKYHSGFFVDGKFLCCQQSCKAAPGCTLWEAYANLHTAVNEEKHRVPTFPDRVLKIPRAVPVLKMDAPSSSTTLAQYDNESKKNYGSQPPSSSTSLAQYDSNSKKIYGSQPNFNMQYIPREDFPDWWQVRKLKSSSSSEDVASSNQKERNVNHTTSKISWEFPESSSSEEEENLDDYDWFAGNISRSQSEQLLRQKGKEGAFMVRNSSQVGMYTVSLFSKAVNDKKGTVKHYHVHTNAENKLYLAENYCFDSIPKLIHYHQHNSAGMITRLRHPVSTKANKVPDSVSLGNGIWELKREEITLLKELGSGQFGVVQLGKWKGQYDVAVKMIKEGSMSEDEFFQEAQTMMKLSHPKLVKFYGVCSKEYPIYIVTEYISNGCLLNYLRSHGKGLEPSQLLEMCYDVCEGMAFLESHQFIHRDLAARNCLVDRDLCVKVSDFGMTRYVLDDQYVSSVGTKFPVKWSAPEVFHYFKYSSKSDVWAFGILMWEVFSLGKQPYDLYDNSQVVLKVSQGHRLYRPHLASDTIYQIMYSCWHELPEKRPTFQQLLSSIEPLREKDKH

PKCη(h) = PKCη(h) (Homo sapiens, UniProt P24723)
PKCη(h), sequence (P24723 whole entry): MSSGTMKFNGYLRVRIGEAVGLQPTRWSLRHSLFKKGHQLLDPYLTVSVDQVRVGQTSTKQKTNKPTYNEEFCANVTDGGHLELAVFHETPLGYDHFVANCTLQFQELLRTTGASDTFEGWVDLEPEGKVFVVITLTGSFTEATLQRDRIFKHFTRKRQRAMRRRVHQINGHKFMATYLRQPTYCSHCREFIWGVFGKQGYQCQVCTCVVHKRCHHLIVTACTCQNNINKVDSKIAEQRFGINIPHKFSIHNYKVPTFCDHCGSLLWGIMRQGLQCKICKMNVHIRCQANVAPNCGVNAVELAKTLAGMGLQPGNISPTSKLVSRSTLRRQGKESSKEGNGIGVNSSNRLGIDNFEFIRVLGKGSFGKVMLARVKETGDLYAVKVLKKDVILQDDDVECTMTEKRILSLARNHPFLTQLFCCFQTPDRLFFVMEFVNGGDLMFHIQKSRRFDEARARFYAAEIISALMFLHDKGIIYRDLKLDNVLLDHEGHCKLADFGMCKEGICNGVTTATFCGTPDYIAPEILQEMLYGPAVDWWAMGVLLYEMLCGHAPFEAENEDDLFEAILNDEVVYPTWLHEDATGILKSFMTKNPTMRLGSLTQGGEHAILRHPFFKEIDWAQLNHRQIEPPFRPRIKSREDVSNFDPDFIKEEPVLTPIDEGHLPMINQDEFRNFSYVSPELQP

PDGFRα(V561D)(h), sequence (P16234 24-1089 V561D): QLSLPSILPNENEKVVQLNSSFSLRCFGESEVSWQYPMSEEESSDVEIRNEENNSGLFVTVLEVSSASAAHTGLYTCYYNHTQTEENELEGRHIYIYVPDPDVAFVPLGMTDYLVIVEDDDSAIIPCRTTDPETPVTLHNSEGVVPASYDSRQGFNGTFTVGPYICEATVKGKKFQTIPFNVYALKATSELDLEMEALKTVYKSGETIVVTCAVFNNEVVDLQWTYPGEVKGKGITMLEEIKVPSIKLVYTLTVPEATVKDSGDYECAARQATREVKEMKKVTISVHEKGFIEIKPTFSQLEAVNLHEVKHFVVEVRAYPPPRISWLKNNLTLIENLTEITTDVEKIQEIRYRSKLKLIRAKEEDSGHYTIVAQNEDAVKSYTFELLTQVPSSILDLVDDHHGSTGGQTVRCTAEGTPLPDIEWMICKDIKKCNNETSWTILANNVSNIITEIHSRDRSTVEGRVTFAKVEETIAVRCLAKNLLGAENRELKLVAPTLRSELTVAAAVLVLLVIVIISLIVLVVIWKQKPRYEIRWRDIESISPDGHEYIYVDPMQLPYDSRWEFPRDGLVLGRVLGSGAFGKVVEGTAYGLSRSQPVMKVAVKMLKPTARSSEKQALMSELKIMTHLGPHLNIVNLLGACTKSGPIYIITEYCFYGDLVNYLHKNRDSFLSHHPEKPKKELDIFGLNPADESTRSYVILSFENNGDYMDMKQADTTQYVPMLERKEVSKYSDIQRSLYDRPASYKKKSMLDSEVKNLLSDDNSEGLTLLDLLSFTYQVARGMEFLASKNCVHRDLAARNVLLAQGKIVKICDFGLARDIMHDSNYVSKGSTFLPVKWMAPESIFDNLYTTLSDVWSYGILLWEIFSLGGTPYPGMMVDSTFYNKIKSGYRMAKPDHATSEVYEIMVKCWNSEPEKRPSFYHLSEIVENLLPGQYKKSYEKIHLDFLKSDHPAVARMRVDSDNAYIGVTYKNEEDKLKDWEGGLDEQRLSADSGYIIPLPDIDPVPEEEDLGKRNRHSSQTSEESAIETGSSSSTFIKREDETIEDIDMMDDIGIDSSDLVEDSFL

Row | Sequence | % activity (Fms(h)) [%] | % activity (PDGFRα(V561D)(h)) [%] | % activity (NEK11(h)) [%] | % activity (DAPK1(h)) [%] | % activity (Tec(h) activated) [%] | % activity (ROCK-I(h)) [%] | % activity (NEK6(h)) [%] | % activity (Bmx(h)) [%] | % activity (PKCη(h)) [%]
1 | FAKLAARLYRKALARQLGVAA [MMI-0300] | 45 | 82 | 53 | 46 | 56 | 79 | 82 |  | 
2 | KAFAKLAARLYRKALARQLGVAA [MMI-0400] | 37 | 100 | 33 | 36 | 29 | 73 | 85 | 26 | 98
3 | YARAAARQARAKALNRQLGVA [MMI-0200] | 92 |  | 95 |  | 77 |  | 98 | 76 | 101
4 | HRRIKAWLKKIKALARQLGVAA [MMI-0500] | 14 | 146 | 2 | 0 | 33 | 17 | 49 | 45 | 45
